According to the supplement of paper PMC9170038:

Test system: MS2 coat protein
Test: apparent KD of MS2 coat protein; designed switch direction (-1 OFF switch, 1 ON switch): -1; higher = weaker reporter binding
Outline: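 Apparent KD, taken as the median over clusters for each design, was obtained by curve-fitting normalised cluster fluorescence. Designed RNA switches had been transcribed on Illumina chips by stalled E. coli RNA polymerase and titrated with SNAP-549-labelled MS2 coat protein, doubling from 0.7 or 1.5 nM to 3 µM.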

[1] = input ligand: microRNA oligo, concentration not stated
[2] = Eterna round: R95, input ligand: FMN 200 uM
[3] = Eterna round: R95, input ligand: microRNA oligo, concentration not stated
[4] = Eterna round: R95, input ligand: none

Sequence | apparent KD of MS2 coat protein (input ligand: FMN 200 uM) | apparent KD of MS2 coat protein [1] | apparent KD of MS2 coat protein (input ligand: none) | apparent KD of MS2 coat protein [2] | apparent KD of MS2 coat protein [3] | apparent KD of MS2 coat protein [4]
GCACUUGAACAUGAGGAUCACCCAUGUGUUUUUCUUGUUCGGCAGGAUAUCGUCUAGCGCCAGGACGAGAAGGGCCAAUAAAAG [Ratiarveed] (Eterna round: R96, puzzle: Exclusion NG 3) | 77.8 nM | 61 nM | 141 nM |  |  | 
GGCACACAUGAGGAUCACCCAUGUCAGGAUAUGUGGCGAUCGUCGAAAGACGAUAGCCACAGAAGGGACAGGCC [Eli x1 4.25] (Eterna round: R97, puzzle: Exclusion 1) | 68.7 nM |  | 49.8 nM |  |  | 
AAUUUAAUUAACAAGCUUUACAUGAGGAUCACCCAUGUGAUCAUGCUCGUCUUAUAAUUAAUUAAUUAAUUAAUUAA [Stov1/6-A1] (Eterna round: R97, puzzle: Sensor, turn-off variant 1) | 48.4 nM |  | 59.2 nM |  |  | 
GUAACAACUAGAGGAUAUCAGCACGUGUUGUGCUGAGAAGGCUAGAGUUACAUGAGGAUCACCCAUGUCUAGAGAUCAUUAAUU [ENG1/13-A4] (Eterna round: R96, puzzle: Exclusion NG 1) | 120 nM | 29.5 nM | 49.1 nM |  |  | 
GUCAGCUCGUGAGGAUAUACAUGAGGAUCACCCAUGUGGUCAAUAGCAGCUUCGGCUGCAUACAUGUAGAAGGCACGAGCUGAC [ENG2/7-A1] (Eterna round: R96, puzzle: Exclusion NG 2) | 59.7 nM | 9.59 nM | 30.7 nM |  |  | 
GUCAUCAAACAUGGGAUCAACAUGAGGAUCACCCAUGUUGUCAAGUUUUUUGCUCGUCUUAUAAUACGUUUGAUGAC [Mod-Jxb] (Eterna round: R97, puzzle: Sensor, turn-off variant 1) | 16 nM |  | 16.4 nM |  |  | 
AAACCGCAUGUCAGGAUAUCCAGUCCGACUAGCUAGGAGAAGGGACAUGAGGAUCACCCAUGUUUCAUGGCUCG [Anveonat] (puzzle: Brourd's mod of Exclusion 4) |  |  |  | 37.6 nM | 19.6 nM | 19 nM
AAGGAUAGAGGAUAUACAUAGAUACAGAUUCAUGUGGUCCUACAUGAGGAUCACCCAUGUAGAAGGCUAUCCUA [Fiskers Ex 2 - 14] (puzzle: Exclusion 2) |  |  |  |  | 169 nM | 
CAAAUGGUUUAAGGAUAUUACAUGAGGAUCACCCAUGUUAUCGGGAUGCUUCUCUUAAAAUACGGUAAGAAGGUAGACCUAAUC [Ceveso] (Eterna round: R96, puzzle: Exclusion NG 2) | 451 nM | 91 nM | 84.9 nM |  |  | 
GGUUGGCGAGGAUAUACAUGAGGAUCACCCAUGUGAGAGAGAAAAGUGAGAACGAAAAGUAGAAGGCGCUGACG [salish99_ex3_r3_061] (puzzle: Exclusion 3) |  |  |  | 53.5 nM | 65.6 nM | 96.2 nM
AAUAAGGGAGGAUAUGCGGAACGGUUUGUUCUCAGUGAGGCACAUGAGGAUCACCCAUGUAGAAGGCCCGGCAA [Orinar] (puzzle: Exclusion 2) |  |  |  |  | 13 nM | 
AAAACAAAAGGAUAUACAUGAGGAUCACCCAUGUGGCAUAAAAUCGCCGCUAAACCAUGUAGAAGGUUUGCGAA [EX3 A.6] (Eterna round: R97, puzzle: Exclusion 3) | 25.5 nM |  | 19.6 nM |  |  | 
CCUGAUCCACAGGAUAUGCUCAUCUAAUGAUGAGCAGAAGGGUGGACAUGAGGAUCACCCAUGUUUAUCAAUGG [Omei Ex6 D4] (Eterna round: R97, puzzle: Exclusion 6) | 804 nM |  | 125 nM |  |  | 
AAUAACAGAGGAUAUACUGUUUUAUGUAUUUAUUAUUUUAAACAUGAGGAUCACCCAUGUAGAAGGCUGAAUAA [JMF 12] (puzzle: Exclusion 2) |  |  |  |  | 19.1 nM | 
AAAUUAGCAAGUAGAUCCGACAUGAGGAUCACCCAUGUUAUCUGAAAGAACGCAGCAUAAUUGUGAGCUCGUCUAAA [Sensor-V1 #4] (Eterna round: R97, puzzle: Sensor, turn-off variant 1) | 93.7 nM |  | 91.5 nM |  |  | 
AAAUAGAAUGAGGAUAUCGAAUUAUAUAUAGUACGAGAAGGCAUUACAUGAGGAUCACCCAUGUUUUGUUGGGA [JR_Ex6_Sub001] (Eterna round: R97, puzzle: Exclusion 6) | 73 nM |  | 27.6 nM |  |  | 
UAAAAUAGUGUGAGGAUAUGCUGGUCCUUGGAUCAGCAGAAGGCACAUGAGGAUCACCCAUGUAGUUAAUAAUA [Mat - Exclusion 4 - JL Mod - D25] (puzzle: Brourd's mod of Exclusion 4) |  |  |  | 196 nM | 36.8 nM | 34.4 nM
GAUUAUGCGAGCUUUAGGGACAUGAGGAUCACCCAUGUUCGUCUUAUUGGUCUAGAUACACUAACAUACCUAAAUCU [JMF 12] (puzzle: Sensor v3, turn-off variant 1) |  |  |  | 15.2 nM | 21.4 nM | 17.4 nM

Sequence | apparent KD of MS2 coat protein (input ligand: FMN 200 uM) | apparent KD of MS2 coat protein [1] | apparent KD of MS2 coat protein (input ligand: none) | apparent KD of MS2 coat protein [2] | apparent KD of MS2 coat protein [3] | apparent KD of MS2 coat protein [4]
AGUGUGUUAGGAUAUCGCAUAUGCUGGAGGAGGUGGAGUUACGAGAAGGAACAUGAGGAUCACCCAUGUAGGAC [JR_Exclu4_Sub050] (puzzle: Exclusion 4) |  |  |  |  | 25.7 nM | 
CUUUUGUGAGGAUAUCAGUAGUAAAUAAAUAAAUUAACUACUGAGAAGGCACAUGAGGAUCACCCAUGUUCCUU [Mat - Exclusion 4 - Mod of Salish - D65] (puzzle: Exclusion 4) |  |  |  |  | 13.7 nM | 
GUUGUUCGGUAGGAUAUGAAACAGCAGAGAUUGUCAGAAGGGCCGACAUGAGGAUCACCCAUGUGUGCGAAAGC [Eternabot (L1) Solution 26] (Eterna round: R97, puzzle: Exclusion 6) | 35.1 nM |  | 50 nM |  |  | 
UUUGAGUUAGGAUAUGCCAAGUUGCACAUGAGGAUCACCCAUGUGAGGUGCCUUACUUAAGCAGAAGGAACAAUAA [EX5 C.13] (Eterna round: R97, puzzle: Exclusion 5) | 22.1 nM |  | 19.8 nM |  |  | 
AAGUACCGUCACGAUAGUGAUGGUACAACAAGUAUGUGAACAUGAGGAUCACCCAUGUCCUCUUUUGCUCGUCUUAU [Sensor 3 - 89] (puzzle: Sensor v3, turn-off variant 2) |  |  |  | 313 nM | 22.3 nM | 309 nM
GCAUGAAAUGUGAGGAUAUACCUCUGGAUACAUAGGUAGAAGGCACAUGAGGAUCACCCAUGUCCUAAACAUGC [Fiskers BMX 4 - 27] (puzzle: Brourd's mod of Exclusion 4) |  |  |  |  | 32.2 nM | 
UAUCAUGUAGGAUAUACGUAGCUAUGACCCUCGAGAACUAUACAUGAGGAUCACCCAUGUAGAAGGGCGACUUU [Eternabot (L1) Solution 34] (Eterna round: R97, puzzle: Exclusion 2) | 21.3 nM |  | 17.2 nM |  |  | 
GCAGCAUAGUCCAAAUAGGACAUACAUGAGGAUCACCCAUGUCAGGAUAUGGUCUGGAUUACAGGCCAGAAGGGACGUAGCUGC [Eli exng3 - 004] (Eterna round: R96, puzzle: Exclusion NG 3) | 25.9 nM | 20.9 nM | 23.6 nM |  |  | 
UCGACGUCGUCAGGAUAUAGUCUUAAUGUCAUGCUUUUGUUCGUACAUGAGGAUCACCCAUGUGGCUAGAAGGGACUAAAGUUU [JR_ExcNG2_Sub016] (Eterna round: R96, puzzle: Exclusion NG 2) | 16.1 nM | 11.7 nM | 26.9 nM |  |  | 
UUGUAUAUCUAUGGGAGUAACAUGAGGAUCACCCAUGUAUGUCUUGUUUUUUGUUCGUCAUAGGCCAAUUGAAUGGU [JR_SV3TOV1_Sub026] (puzzle: Sensor v3, turn-off variant 1) |  |  |  | 25.9 nM | 34.5 nM | 28.9 nM
AAAUCGGUAGAGGAUAUUGUACAGGAAACGGUGCAAGAAGGUUACACAUGAGGAUCACCCAUGUUAAAUAGCGA [EX6 #53] (Eterna round: R97, puzzle: Exclusion 6) | 26.9 nM |  | 18.1 nM |  |  | 
GAAAAGGUAGGAUAUACGAAAAAAAAGGGUAGGAAAAAAACACAUGAGGAUCACCCAUGUAGAAGGACCAAAAG [salish99_ex2_r3_024] (puzzle: Exclusion 2) |  |  |  | 61.7 nM | 21.8 nM | 19.8 nM
CCUCUACAUGAGGAUCACCCAUGUGAGGAUAUCUCGGAGCAGCCACUUAAGGCGCUCCAGAGAAGGCACGUGUA [Resogeorza] (puzzle: Exclusion 1) |  |  |  |  | 17.6 nM | 
ACUUGUUGUCCUUGAUAUUACAUGAGGAUCACCCAUGUUAUUGUGAUUUUGAUGUGUAAGUUUGUUGCUCGUCUUAU [JR_STOV1_Sub064] (Eterna round: R97, puzzle: Sensor, turn-off variant 1) | 70.2 nM |  | 71.5 nM |  |  | 
GCCGUAAAUGUGAGGAUAUACCUAUGGAUACAUAGGUAGAAGGCACAUGAGGAUCACCCAUGUUCUUAAUCGGC [Eli BMX r4m2] (Eterna round: R97, puzzle: Brourd's mod of Exclusion 4) | 567 nM |  | 185 nM |  |  | 
UUUUUAUAUGAAGGAUAUACUUAACAUGAGGAUCACCCAUGUGGUGUUGUGAGUGAGUGAGUUUAGUAGAAGGUCAAUGAUUUU [JMF's solution 10] (Eterna round: R96, puzzle: Exclusion NG 2) | 730 nM | 326 nM | 345 nM |  |  | 
UAGAAGGUAGGAUAUACGAAUAAAUAGGGUAGUAAGAAGACACAUGAGGAUCACCCAUGUAGAAGGACCAAGAU [Mat - Exclusion 2 - Mod of my Tesla design - D33] (puzzle: Exclusion 2) |  |  |  | 33.5 nM | 19.4 nM | 20.6 nM
